The values that follow come from publication PMC3553997 (Nucleic Acids Research, 2012).

The target of data set [1] is T1, TreR (TM0393) (Thermotoga maritima, UniProt Q9WYM4).
T1 sequence (Q9WYM4 1-371): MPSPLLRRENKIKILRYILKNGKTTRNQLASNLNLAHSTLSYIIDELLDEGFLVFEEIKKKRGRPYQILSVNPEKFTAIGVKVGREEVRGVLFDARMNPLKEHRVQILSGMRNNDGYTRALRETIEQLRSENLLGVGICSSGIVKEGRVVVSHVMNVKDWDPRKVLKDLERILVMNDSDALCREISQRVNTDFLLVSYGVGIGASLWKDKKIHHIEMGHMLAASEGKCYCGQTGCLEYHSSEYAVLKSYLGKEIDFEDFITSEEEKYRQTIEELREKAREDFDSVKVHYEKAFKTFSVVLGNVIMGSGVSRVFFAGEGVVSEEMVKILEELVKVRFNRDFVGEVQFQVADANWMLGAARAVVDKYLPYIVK
The data set can be described thus: EMSA, loss of operator DNA binding. Particulars: 50 nM protein, TM0392/treT operator DNA; pH 8.0, 150 mM KCl, 5 mM MgCl2, 60°C. (A gel shift assay detects complexes by their altered migration in electrophoresis.)

Data set [2] has as its target T2, XylR (Thermotoga maritima MSB8, UniProt Q9WXW5 1-378).
T2 sequence: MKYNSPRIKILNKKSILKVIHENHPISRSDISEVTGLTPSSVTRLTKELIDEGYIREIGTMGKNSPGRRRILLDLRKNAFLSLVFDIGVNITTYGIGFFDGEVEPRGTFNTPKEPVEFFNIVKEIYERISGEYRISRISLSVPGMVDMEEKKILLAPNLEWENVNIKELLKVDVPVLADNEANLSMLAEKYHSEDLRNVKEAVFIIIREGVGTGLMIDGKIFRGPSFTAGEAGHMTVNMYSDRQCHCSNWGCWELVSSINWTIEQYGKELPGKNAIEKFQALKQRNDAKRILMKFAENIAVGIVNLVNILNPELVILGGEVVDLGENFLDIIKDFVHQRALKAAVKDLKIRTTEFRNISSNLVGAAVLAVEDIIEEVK
Description: EMSA.

For data set [3], the target named is T3, IolR (Thermotoga maritima MSB8, UniProt Q9WYP2 1-383).
T3 sequence: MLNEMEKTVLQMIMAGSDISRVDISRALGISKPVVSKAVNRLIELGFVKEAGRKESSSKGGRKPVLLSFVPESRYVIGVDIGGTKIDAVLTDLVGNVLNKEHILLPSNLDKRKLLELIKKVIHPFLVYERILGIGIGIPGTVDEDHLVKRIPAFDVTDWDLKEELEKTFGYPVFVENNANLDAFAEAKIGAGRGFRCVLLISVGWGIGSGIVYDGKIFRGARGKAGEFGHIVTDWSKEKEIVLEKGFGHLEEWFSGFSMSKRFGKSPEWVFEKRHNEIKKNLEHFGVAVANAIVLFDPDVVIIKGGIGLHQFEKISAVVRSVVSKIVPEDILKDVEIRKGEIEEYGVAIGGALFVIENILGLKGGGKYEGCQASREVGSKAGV
Description: EMSA.

Data set [4] has as its target T4, TreR (Thermotoga maritima, UniProt Q9WYM4 1-371).
T4 sequence: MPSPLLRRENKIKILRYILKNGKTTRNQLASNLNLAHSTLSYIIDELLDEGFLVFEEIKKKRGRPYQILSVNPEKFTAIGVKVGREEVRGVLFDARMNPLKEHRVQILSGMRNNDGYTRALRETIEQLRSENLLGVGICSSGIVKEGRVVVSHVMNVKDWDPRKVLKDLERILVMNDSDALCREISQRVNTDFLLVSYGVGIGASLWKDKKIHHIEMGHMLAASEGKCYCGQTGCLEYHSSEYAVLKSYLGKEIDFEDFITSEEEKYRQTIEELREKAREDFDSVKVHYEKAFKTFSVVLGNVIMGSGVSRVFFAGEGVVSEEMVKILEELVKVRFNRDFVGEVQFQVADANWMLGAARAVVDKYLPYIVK
The data set can be described thus: EMSA.

The target of data set [5] is T5, ManR (Thermotoga maritima, UniProt Q9X0V1 1-368).
T5 sequence: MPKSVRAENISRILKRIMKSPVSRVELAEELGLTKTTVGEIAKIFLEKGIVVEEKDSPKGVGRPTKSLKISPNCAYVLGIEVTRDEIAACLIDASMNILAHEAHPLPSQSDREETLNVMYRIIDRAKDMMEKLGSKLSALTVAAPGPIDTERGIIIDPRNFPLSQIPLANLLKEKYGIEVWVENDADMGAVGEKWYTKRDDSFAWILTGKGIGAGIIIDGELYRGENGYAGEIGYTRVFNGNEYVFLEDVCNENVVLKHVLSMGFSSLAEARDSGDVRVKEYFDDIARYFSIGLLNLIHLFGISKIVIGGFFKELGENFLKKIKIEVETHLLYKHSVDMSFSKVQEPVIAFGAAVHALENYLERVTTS
The data set can be described thus: EMSA.

For data set [6], the target named is T6, ChiR (Thermotoga maritima, UniProt Q9WZR5 1-355).
T6 sequence: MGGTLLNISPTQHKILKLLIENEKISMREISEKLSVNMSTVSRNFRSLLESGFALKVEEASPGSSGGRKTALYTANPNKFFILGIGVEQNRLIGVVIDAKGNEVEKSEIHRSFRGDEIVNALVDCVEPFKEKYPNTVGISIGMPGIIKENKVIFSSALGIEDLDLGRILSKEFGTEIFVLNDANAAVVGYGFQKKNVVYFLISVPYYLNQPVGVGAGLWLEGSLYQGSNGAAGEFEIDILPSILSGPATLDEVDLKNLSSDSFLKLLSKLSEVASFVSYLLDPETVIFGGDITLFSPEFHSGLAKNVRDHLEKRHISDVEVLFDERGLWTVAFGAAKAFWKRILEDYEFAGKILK
Description: EMSA.

Data set [7] deals with T7, BglR (Thermotoga maritima MSB8, UniProt Q9WXN9 1-381).
T7 sequence: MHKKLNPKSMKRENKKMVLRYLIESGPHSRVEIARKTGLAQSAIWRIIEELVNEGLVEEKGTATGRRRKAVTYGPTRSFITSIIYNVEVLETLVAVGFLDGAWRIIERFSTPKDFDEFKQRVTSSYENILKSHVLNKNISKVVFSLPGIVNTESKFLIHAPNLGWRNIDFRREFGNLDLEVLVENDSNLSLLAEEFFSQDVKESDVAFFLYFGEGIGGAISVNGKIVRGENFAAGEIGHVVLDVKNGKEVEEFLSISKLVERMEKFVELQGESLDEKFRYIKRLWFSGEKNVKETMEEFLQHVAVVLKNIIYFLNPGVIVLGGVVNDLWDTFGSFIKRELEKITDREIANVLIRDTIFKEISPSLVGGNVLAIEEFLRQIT
The data set can be described thus: EMSA.

As for `OC[C@H]1O[C@H](O[C@H]2O[C@H](CO)[C@@H](O)[C@H](O)[C@H]2O)[C@H](O)[C@@H](O)[C@@H]1O` [Trehalose], the “Tested potential ligands / (Sugar)” value in data set [1] is 0.2 mM.

B1: xynA site (dsDNA)
DNA 1: TCGAAGAAGCTCAATTTTTTCTTTACAAAAAATAACTTTAGGGTGATAT
DNA 2: ATATCACCCTAAAGTTATTTTTTGTAAAGAAAAAATTGAGCTTCTTCGA
In data set [2], B1 came in with a binding signal of 2.5 nM.

B2: iolR site (dsDNA)
DNA 1: TAGTTGACAAATTGATTATAATGTGGTTGGTTAGTTAACGATAACAAACGAAAGGAATGGAAAAATGCTGAAT
DNA 2: ATTCAGCATTTTTCCATTCCTTTCGTTTGTTATCGTTAACTAACCAACCACATTATAATCAATTTGTCAACTA
For the molecule B2, the binding signal in data set [3] was 2.5 nM.

B3: treT site (dsDNA)
DNA 1: TGATTAATTGTGTATTAATTCAAGTTACGAATAAATTTGGGAGGGATCA
DNA 2: TGATCCCTCCCAAATTTATTCGTAACTTGAATTAATACACAATTAATCA
B3 gave a binding signal in data set [4] of 10 nM.

B4: manB site (dsDNA)
DNA 1: CGATGACCCTGATAAATAAGTAAAGTTTACTAATTAACGGGAGGTATCG
DNA 2: CGATACCTCCCGTTAATTAGTAAACTTTACTTATTTATCAGGGTCATCG
Regarding B4, in data set [5], the binding signal was determined as 10 nM.

B5: xloE site (dsDNA)
DNA 1: AGATTTACATTAAAATATTTCCCGAAAGGAAAAAATATAACATACAATC
DNA 2: GATTGTATGTTATATTTTTTCCTTTCGGGAAATATTTTAATGTAAATCT
In the case of B5, in data set [2], the binding signal stood at 5 nM.

B6: chiR site (dsDNA)
DNA 1: ACAATAATTTATGAAGTTGTTTGCGGCATGCAACTAACTGATGGGAGGG
DNA 2: CCCTCCCATCAGTTAGTTGCATGCCGCAAACAACTTCATAAATTATTGT
The molecule B6 came in with a binding signal in data set [6] of 0.5 nM.

B7: xylA site (dsDNA)
DNA 1: CCCAAGATTTTATATAATTGATTGATAGAAAAAATTTAGGGAGGTGTTT
DNA 2: AAACACCTCCCTAAATTTTTTCTATCAATCAATTATATAAAATCTTGGG
With B7, the binding signal in data set [2] is 5 nM.

B8: mtpE site (dsDNA)
DNA 1: TAACATAATCTTTTTATTAGTAAGTGTTATTTATTAACATCCATTTAAA
DNA 2: TTTAAATGGATGTTAATAAATAACACTTACTAATAAAAAGATTATGTTA
As for B8, the binding signal in data set [5] is 25 nM.

B9: bglR site (dsDNA)
DNA 1: GAGTCATATCGTTATAATTTCTTTCTGAGGAAGATAGATAAGAAGCAGG
DNA 2: CCTGCTTCTTATCTATCTTCCTCAGAAAGAAATTATAACGATATGACTC
For B9, in data set [7], the binding signal came out at 2.5 nM.

B10: xylR site (dsDNA)
DNA 1: ACCTTGATTTTAAATTATTTCCTGCATATAATTAATGTGAACATAATAT
DNA 2: ATATTATGTTCACATTAATTATATGCAGGAAATAATTTAAAATCAAGGT
For the molecule B10, the binding signal in data set [2] was found to be 2.5 nM.
